Patent publication US20240076392A1 (IGM BIOSCIENCES, published 2024)

T1: recombinant human CD123 protein (CD123, Fc-Fusion (IgG1) Avi-Tag, Biotin-Labeled, BPS Bioscience Cat.100068-2) (human, UniProt P26951 19-305, limits assumed, biotin-labeled (Avi-Tag))
T1 construct: Bought protein; not shown: IgG1 Fc; Avi-Tag
T1 sequence (looked up): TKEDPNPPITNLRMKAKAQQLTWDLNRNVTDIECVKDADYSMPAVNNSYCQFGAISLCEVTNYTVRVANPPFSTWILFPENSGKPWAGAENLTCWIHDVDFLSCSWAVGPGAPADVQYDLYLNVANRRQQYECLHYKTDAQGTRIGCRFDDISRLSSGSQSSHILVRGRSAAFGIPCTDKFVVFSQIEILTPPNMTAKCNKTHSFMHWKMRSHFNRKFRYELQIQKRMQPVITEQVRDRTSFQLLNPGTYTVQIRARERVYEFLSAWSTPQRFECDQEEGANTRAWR

T2: Human CD123
T2 construct: It is a different reagent from m11 (Acro, His) and m13 (BPS, Fc); also called recombinant human CD123 protein (Sino Biological 10518-H08H-50); not shown: The tag of the vendor's product
T2 chain: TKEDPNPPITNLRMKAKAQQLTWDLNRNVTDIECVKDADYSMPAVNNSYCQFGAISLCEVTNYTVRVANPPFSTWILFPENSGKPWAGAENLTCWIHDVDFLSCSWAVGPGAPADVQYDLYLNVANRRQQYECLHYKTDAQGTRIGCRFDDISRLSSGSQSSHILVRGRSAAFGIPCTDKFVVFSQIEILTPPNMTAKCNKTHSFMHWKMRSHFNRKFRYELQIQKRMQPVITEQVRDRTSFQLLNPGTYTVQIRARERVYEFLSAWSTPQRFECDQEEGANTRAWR

T3: recombinant human CD123 protein (CD123)-His Acrobio #ILA-H52H6 (human, UniProt P26951 19-305)
T3 construct: Bought protein; also called hu IL-3R alpha (CD123)-His; not shown: His tag
T3 sequence (looked up): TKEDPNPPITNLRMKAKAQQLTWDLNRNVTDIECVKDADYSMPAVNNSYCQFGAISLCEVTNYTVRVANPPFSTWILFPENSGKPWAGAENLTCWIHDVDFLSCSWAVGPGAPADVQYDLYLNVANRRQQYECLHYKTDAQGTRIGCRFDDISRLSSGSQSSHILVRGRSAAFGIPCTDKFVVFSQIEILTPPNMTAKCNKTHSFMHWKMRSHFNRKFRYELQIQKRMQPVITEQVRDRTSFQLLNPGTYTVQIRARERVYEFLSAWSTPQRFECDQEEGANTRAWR


Experiments:
[1] = molecular target: T1, recombinant human CD123 protein (CD123, …); assay: BLI (Octet), CD123-Fc on anti-human Fc sensors, IgM in solution
Human CD123 = molecular target: T2, Human CD123; assay: ELISA, plate coated with 0.2 ug/mL recombinant human CD123 (Sino Biological), detection with HRP anti-human kappa, chemiluminescence
Method: 96-well white polystyrene ELISA plates (Pierce 15042) were coated with 100 μL per well of 0.2 μg/mL recombinant human CD123 protein (Sino Biological 10518-H08H-50) or 0.5 μg/ml recombinant human CD3ε protein (Acro Biosystems, CDE-H5256-100) overnight at 4° C. Plates were then washed 5 times with 0.05% PBS-Tween and blocked with 2% BSA-PBS. After blocking, 100 μL of serial dilutions of CD123×CD3 IgM antibodies, standards, and controls were added to the wells and incubated at room temperature for 2 hours. The plates were then washed 10 times and incubated with HRP conjugated mouse anti-human kappa (Southern Biotech, 9230-05. 1:6000 diluted in 2% BSA-PBS) for 30 min. After 10 final washes using 0.05% PBS-Tween, the plates were read out using SuperSignal chemiluminescent substrate (ThermoFisher, 37070). Luminescent data were collected on an EnVision plate reader (Perkin-Elmer) and analyzed with GraphPad Prism using a 4-parameter logistic model.

[2] = molecular target: T3, recombinant human CD123 protein …; assay: BLI (Octet), CD123-His on anti-penta-His sensors, IgG in solution, 1:1 global fit
Method: PBST (1×PBS+1% BSA+0.05% Tween-20) buffer was used as Antibody/CD123 dilution and sensor hydration buffer. The experiment followed a five-step sequential assay at 24° C. First, biosensors were hydrated for 10 minutes. Samples and buffer were applied in 384-well plate. After initial baseline for 60 s, sensors were loaded with 7 nM hu IL-3R alpha (CD123)-His Acrobio #ILA-H52H6. The biosensors were dipped into PBST for 20 s to reach baseline, then incubated for 420 s with 2-fold serial diluted anti-CD123 antibodies starting at 10 nM for association, followed by 900 s in PBST for dissociation. Results were analyzed by ForteBio Data Analysis software 9.0 using 1:1 global fit model.

| Binder | Kd [1] [nM] | koff [1] [s⁻¹] | kon [1] [M⁻¹ s⁻¹] | EC50 (read off the curve) (Human CD123) [nM] | Kd [2] [nM] | koff [2] [s⁻¹] | kon [2] [M⁻¹ s⁻¹] |
| --- | --- | --- | --- | --- | --- | --- | --- |
| 32716 IgM (CD123xCD3 IgM antibody) (bispecific antibody, Pentameric IgM with J-chain; also called original mouse antibody) VH: QIQLVQSGPELKKPGETVKISCKASGYIFTNYGMNWVKQAPGKSFKWMGWINTYTGESTYSADFKGRFAFSLETSASTAYLHINDLKNEDTATYFCARSGGYDPMDYWGQGTSVTVSS VL: DIVLTQSPASLAVSLGQRATISCRASESVDNYGNTFMHWYQQKPGQPPKLLIYRASNLESGIPARFSGSGSRTDFTLTINPVEADDVATYYCQQSNEDPPTFGAGTKLELK J-chain: not shown | < 0.001 | < 1e-07 | 4.1e+06 | ~0.03 |  |  |  |
| h32716-1-1 IgM (CD123xCD3 IgM antibody) (bispecific antibody, Pentameric IgM with modified J-chain) VH: QVQLVQSGAEVKKPGSSVKVSCKASGYIFTNYGMNWVRQAPGQGLEWMGWINTYTGESTYSADFKGRVTITADESTSTAYMELSSLRSEDTAVYYCARSGGYDPMDYWGQGTLVTVSS VL: DIVMTQSPDSLAVSLGERATINCRASESVDNYGNTFMHWYQQKPGQPPKLLIYRASNLESGVPDRFSGSGSGTDFTLTISSLQAEDVAVYYCQQSNEDPPTFGQGTRLEIK not shown | < 0.001 | < 1e-07 | 3.9e+06 | 0.1 to 0.2 |  |  |  |
| h32716-4-2 IgM (CD123xCD3 IgM antibody) (bispecific antibody, Pentameric IgM with modified J-chain) VH: QVQLVQSGPELKKPGASVKVSCKASGYIFTNYGMNWVRQAPGQGLEWMGWINTYTGESTYSADFKGRFVFSLDTSVSTAYLQISSLKAEDTAVYYCARSGGYDPMDYWGQGTLVTVSS VL: DIQMTQSPSSLSASVGDRVTITCRASESVDNYGNTFMHWYQQKPGKAPKLLIYRASNLESGVPSRFSGSGSGTDFTFTISSLQPEDIATYYCQQSNEDPPTFGQGTKVEIK not shown | 0.00443 | 1.69e-05 | 3.82e+06 | ~0.08 |  |  |  |
| 32716 IgG (antibody, V domains shown, Parental mouse variable domains cloned into human IgG format; detected with anti-human kappa; also called original mouse antibody) VH: QIQLVQSGPELKKPGETVKISCKASGYIFTNYGMNWVKQAPGKSFKWMGWINTYTGESTYSADFKGRFAFSLETSASTAYLHINDLKNEDTATYFCARSGGYDPMDYWGQGTSVTVSS VL: DIVLTQSPASLAVSLGQRATISCRASESVDNYGNTFMHWYQQKPGQPPKLLIYRASNLESGIPARFSGSGSRTDFTLTINPVEADDVATYYCQQSNEDPPTFGAGTKLELK |  |  |  |  | 0.44 | 0.0003 | 710000 |
| h32716-2-1 IgG (antibody, V domains shown, Human IgG format) VH: QVQLVQSGAEVKKPGSSVKVSCKASGYIFTNYGMNWVKQAPGQGLEWMGWINTYTGESTYSADFKGRFTFTLDESTSTAYMELSSLRSEDTAVYYCARSGGYDPMDYWGQGTLVTVSS VL: DIVMTQSPDSLAVSLGERATINCRASESVDNYGNTFMHWYQQKPGQPPKLLIYRASNLESGVPDRFSGSGSGTDFTLTISSLQAEDVAVYYCQQSNEDPPTFGQGTRLEIK |  |  |  |  | 0.45 | 0.00049 | 1.1e+06 |
| h32716-1-1 IgG (antibody, V domains shown, Human IgG format) VH: QVQLVQSGAEVKKPGSSVKVSCKASGYIFTNYGMNWVRQAPGQGLEWMGWINTYTGESTYSADFKGRVTITADESTSTAYMELSSLRSEDTAVYYCARSGGYDPMDYWGQGTLVTVSS VL: DIVMTQSPDSLAVSLGERATINCRASESVDNYGNTFMHWYQQKPGQPPKLLIYRASNLESGVPDRFSGSGSGTDFTLTISSLQAEDVAVYYCQQSNEDPPTFGQGTRLEIK |  |  |  |  | 0.36 | 0.0004 | 940000 |
| h32716-3-1 IgG (antibody, V domains shown, Human IgG format) VH: QVQLVQSGAEVKKPGSSVKVSCKASGYIFTNYGMNWVKQAPGQGFKWMGWINTYTGESTYSADFKGRFTFTLDESTSTAYMELSSLRSEDTAVYYCARSGGYDPMDYWGQGTLVTVSS VL: DIVMTQSPDSLAVSLGERATINCRASESVDNYGNTFMHWYQQKPGQPPKLLIYRASNLESGVPDRFSGSGSGTDFTLTISSLQAEDVAVYYCQQSNEDPPTFGQGTRLEIK |  |  |  |  | 0.25 | 0.00031 | 1.2e+06 |
| h32716-5-2 IgG (antibody, V domains shown, Human IgG format) VH: QVQLVQSGPELKKPGASVKVSCKASGYIFTNYGMNWVKQAPGQGLEWMGWINTYTGESTYSADFKGRFVFSLDTSVSTAYLQISSLKAEDTAVYYCARSGGYDPMDYWGQGTLVTVSS VL: DIQMTQSPSSLSASVGDRVTITCRASESVDNYGNTFMHWYQQKPGKAPKLLIYRASNLESGVPSRFSGSGSGTDFTFTISSLQPEDIATYYCQQSNEDPPTFGQGTKVEIK |  |  |  |  | 0.71 | 0.00045 | 700000 |
| h32716-4-2 IgG (antibody, V domains shown, Human IgG format) VH: QVQLVQSGPELKKPGASVKVSCKASGYIFTNYGMNWVRQAPGQGLEWMGWINTYTGESTYSADFKGRFVFSLDTSVSTAYLQISSLKAEDTAVYYCARSGGYDPMDYWGQGTLVTVSS VL: DIQMTQSPSSLSASVGDRVTITCRASESVDNYGNTFMHWYQQKPGKAPKLLIYRASNLESGVPSRFSGSGSGTDFTFTISSLQPEDIATYYCQQSNEDPPTFGQGTKVEIK |  |  |  |  | 0.6 | 0.00046 | 770000 |
| h32716-6-2 IgG (antibody, V domains shown, Human IgG format) VH: QVQLVQSGPELKKPGASVKVSCKASGYIFTNYGMNWVKQAPGQGFKWMGWINTYTGESTYSADFKGRFVFSLDTSVSTAYLQISSLKAEDTAVYYCARSGGYDPMDYWGQGTLVTVSS VL: DIQMTQSPSSLSASVGDRVTITCRASESVDNYGNTFMHWYQQKPGKAPKLLIYRASNLESGVPSRFSGSGSGTDFTFTISSLQPEDIATYYCQQSNEDPPTFGQGTKVEIK |  |  |  |  | 0.33 | 0.0002 |  |
